Assay results from IntAct's records for PubMed 35512704.

B1: Mothers against decapentaplegic homolog 4 (Homo sapiens), Q13485 (parent)
chain: MDNMSITNTPTSNDACLSIVHSLMCHRQGGESETFAKRAIESLVKKLKEKKDELDSLITAITTNGAHPSKCVTIQRTLDGRLQVAGRKGFPHVIYARLWRWPDLHKNELKHVKYCQYAFDLKCDSVCVNPYHYERVVSPGIDLSGLTLQSNAPSSMMVKDEYVHDFEGQPSLSTEGHSIQTIQHPPSNRASTETYSTPALLAPSESNATSTANFPNIPVASTSQPASILGGSHSEGLLQIASGPQPGQQQNGFTGQPATYHHNSTTTWTGSRTAPYTPNLPHHQNGHLQHHPPMPPHPGHYWPVHNELAFQPPISNHPAPEYWCSIAYFEMDVQVGETFKVPSSCPIVTVDGYVDPSGGDRFCLGQLSNVHRTEAIERARLHIGKGVQLECKGEGDVWVRCLSDHAVFVQSYYLDREAGRAPGDAVHKIYPSAYIKVFDLRQCHRQMQQQAATAQAAAAAQAAAVAGNIPGPGSVGGIAPAISLSAAAGIGVDDLRRLCILRMSFVKGWGPDYPRQSIKETPCWIEIHLHRALQLLDEVLHTMPIADPQPLD

Variants of: B1
Conditions: with smad3_human SMAD3, P84022
In the case of R361C, the “effect of a mutation on the interaction” value is reported as “disrupting interaction strength”.

Variants of: B1
Conditions: with agap2_human AGAP2, Q99490
Sequence of agap2_human AGAP2, Q99490 (Q99490 whole entry): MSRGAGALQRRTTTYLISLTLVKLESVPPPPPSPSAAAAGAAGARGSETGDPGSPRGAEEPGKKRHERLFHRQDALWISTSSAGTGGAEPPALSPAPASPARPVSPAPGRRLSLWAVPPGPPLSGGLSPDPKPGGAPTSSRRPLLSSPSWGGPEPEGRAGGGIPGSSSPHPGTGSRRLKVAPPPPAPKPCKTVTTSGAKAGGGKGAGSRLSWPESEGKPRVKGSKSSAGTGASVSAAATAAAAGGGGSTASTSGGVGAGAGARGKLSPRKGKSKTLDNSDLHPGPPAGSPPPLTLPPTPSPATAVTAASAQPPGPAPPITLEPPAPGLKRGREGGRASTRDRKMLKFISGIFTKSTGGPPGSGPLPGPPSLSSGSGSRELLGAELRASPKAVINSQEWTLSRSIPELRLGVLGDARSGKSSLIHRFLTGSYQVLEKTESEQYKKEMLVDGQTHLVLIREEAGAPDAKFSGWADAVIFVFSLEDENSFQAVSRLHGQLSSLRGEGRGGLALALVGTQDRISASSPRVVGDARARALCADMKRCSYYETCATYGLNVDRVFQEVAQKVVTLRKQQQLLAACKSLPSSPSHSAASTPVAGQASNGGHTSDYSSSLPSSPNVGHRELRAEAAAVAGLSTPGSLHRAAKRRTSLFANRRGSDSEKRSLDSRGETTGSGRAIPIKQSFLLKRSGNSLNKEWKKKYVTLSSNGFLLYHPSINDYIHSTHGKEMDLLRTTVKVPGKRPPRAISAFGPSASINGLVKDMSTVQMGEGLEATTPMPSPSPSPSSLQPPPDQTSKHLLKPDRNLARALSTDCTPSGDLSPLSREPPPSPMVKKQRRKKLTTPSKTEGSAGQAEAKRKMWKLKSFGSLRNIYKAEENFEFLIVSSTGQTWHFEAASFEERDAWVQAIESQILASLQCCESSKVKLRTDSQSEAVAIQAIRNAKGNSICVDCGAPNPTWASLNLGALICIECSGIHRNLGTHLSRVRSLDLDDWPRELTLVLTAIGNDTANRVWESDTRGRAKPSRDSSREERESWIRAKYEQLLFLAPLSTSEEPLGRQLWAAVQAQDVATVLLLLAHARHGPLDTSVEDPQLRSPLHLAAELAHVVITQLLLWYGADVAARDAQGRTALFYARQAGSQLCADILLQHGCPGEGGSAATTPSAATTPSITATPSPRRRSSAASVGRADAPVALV
With R361C the “effect of a mutation on the interaction” value was “with no effect”.

Variants of: B1
Conditions: with ajuba_human AJUBA
R361C was tested, and the “effect of a mutation on the interaction” value was “with no effect”.

Variants of: B1
Conditions: with akt1_human AKT1, P31749
With R361C the “effect of a mutation on the interaction” value was “with no effect”.

Variants of: B1
Conditions: with akts1_human AKT1S1, Q96B36
In the case of R361C, the “effect of a mutation on the interaction” value is reported as “with no effect”.

Variants of: B1
Conditions: with akt3_human AKT3, Q9Y243
With R361C the “effect of a mutation on the interaction” value was “with no effect”.

Variants of: B1
Conditions: with alk_human ALK
In the case of R361C, the “effect of a mutation on the interaction” value is reported as “with no effect”.

Variants of: B1
Conditions: with aph1a_human APH1A
With R361C the “effect of a mutation on the interaction” value was “with no effect”.

Variants of: B1
Conditions: with arc1a_human ARPC1A
R361C was tested, and the “effect of a mutation on the interaction” value was “with no effect”.

Variants of: B1
Conditions: with asxl1_human ASXL1, Q8IXJ9
With R361C the “effect of a mutation on the interaction” value was “with no effect”.

Variants of: B1
Conditions: with bakor_human ATG14, Q6ZNE5
With R361C the “effect of a mutation on the interaction” value was “with no effect”.

Variants of: B1
Conditions: with atpb_human ATP5F1B
In the case of R361C, the “effect of a mutation on the interaction” value is reported as “with no effect”.

Variants of: B1
Conditions: with atrx_human ATRX
In the case of R361C, the “effect of a mutation on the interaction” value is reported as “with no effect”.

Variants of: B1
Conditions: with aurkb_human AURKB
In the case of R361C, the “effect of a mutation on the interaction” value is reported as “with no effect”.

Variants of: B1
Conditions: with ufo_human AXL
In the case of R361C, the “effect of a mutation on the interaction” value is reported as “with no effect”.

Variants of: B1
Conditions: with za2g_human AZGP1, P25311
R361C was tested, and the “effect of a mutation on the interaction” value was “with no effect”.

Variants of: B1
Conditions: with b2mg_human B2M
For R361C, the “effect of a mutation on the interaction” value was “with no effect”.

Variants of: B1
Conditions: with bap1_human BAP1, Q92560
For R361C, the “effect of a mutation on the interaction” value was “with no effect”.

Variants of: B1
Conditions: with becn1_human BECN1, Q14457
In the case of R361C, the “effect of a mutation on the interaction” value is reported as “with no effect”.

Variants of: B1
Conditions: with birc2_human BIRC2, Q13490
In the case of R361C, the “effect of a mutation on the interaction” value is reported as “with no effect”.

Variants of: B1
Conditions: with braf_human BRAF
With R361C the “effect of a mutation on the interaction” value was “with no effect”.

Variants of: B1
Conditions: with cbl_human CBL
R361C was tested, and the “effect of a mutation on the interaction” value was “with no effect”.

Variants of: B1
Conditions: with cblb_human CBLB
For R361C, the “effect of a mutation on the interaction” value was “with no effect”.

Variants of: B1
Conditions: with ccnd1_human CCND1, P24385
R361C was tested, and the “effect of a mutation on the interaction” value was “with no effect”.

Variants of: B1
Conditions: with ccnd2_human CCND2, P30279
In the case of R361C, the “effect of a mutation on the interaction” value is reported as “with no effect”.

Variants of: B1
Conditions: with ccnd3_human CCND3, P30281
Sequence of ccnd3_human CCND3, P30281 (P30281 whole entry): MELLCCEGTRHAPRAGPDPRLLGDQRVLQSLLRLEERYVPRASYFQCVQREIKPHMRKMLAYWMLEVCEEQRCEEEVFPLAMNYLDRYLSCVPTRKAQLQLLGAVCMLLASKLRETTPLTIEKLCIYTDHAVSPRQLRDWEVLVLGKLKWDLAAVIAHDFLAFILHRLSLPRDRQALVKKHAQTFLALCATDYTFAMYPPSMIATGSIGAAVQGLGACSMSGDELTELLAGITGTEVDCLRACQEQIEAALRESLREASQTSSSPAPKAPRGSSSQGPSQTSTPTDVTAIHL
For R361C, the “effect of a mutation on the interaction” value was “with no effect”.

Variants of: B1
Conditions: with cd44_human CD44, P16070
With R361C the “effect of a mutation on the interaction” value was “with no effect”.

Variants of: B1
Conditions: with cd79b_human CD79B
With R361C the “effect of a mutation on the interaction” value was “with no effect”.

Variants of: B1
Conditions: with cdk6_human CDK6, Q00534
Sequence of cdk6_human CDK6, Q00534 (Q00534 whole entry): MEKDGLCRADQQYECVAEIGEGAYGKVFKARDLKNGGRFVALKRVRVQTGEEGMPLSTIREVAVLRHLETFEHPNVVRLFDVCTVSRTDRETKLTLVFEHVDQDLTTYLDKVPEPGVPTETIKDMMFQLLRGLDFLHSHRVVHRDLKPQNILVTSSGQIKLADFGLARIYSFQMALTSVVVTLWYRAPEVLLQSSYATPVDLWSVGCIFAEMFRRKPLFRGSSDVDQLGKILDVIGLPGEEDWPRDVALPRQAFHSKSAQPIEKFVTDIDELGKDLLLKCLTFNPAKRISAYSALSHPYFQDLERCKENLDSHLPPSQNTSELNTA
With R361C the “effect of a mutation on the interaction” value was “with no effect”.

Variants of: B1
Conditions: with cdn2b_human CDKN2B
For R361C, the “effect of a mutation on the interaction” value was “with no effect”.

Variants of: B1
Conditions: with cdn2c_human CDKN2C
R361C was tested, and the “effect of a mutation on the interaction” value was “with no effect”.

Variants of: B1
Conditions: with cebpa_human CEBPA
With R361C the “effect of a mutation on the interaction” value was “with no effect”.

Variants of: B1
Conditions: with ch3l1_human CHI3L1, P36222
For R361C, the “effect of a mutation on the interaction” value was “with no effect”.

Variants of: B1
Conditions: with ctna1_human CTNNA1, P35221
With R361C the “effect of a mutation on the interaction” value was “with no effect”.

Variants of: B1
Conditions: with ctnb1_human CTNNB1, P35222
With R361C the “effect of a mutation on the interaction” value was “with no effect”.

Variants of: B1
Conditions: with cul3_human CUL3, Q13618
R361C was tested, and the “effect of a mutation on the interaction” value was “with no effect”.

Variants of: B1
Conditions: with dicer_human DICER1, Q9UPY3
In the case of R361C, the “effect of a mutation on the interaction” value is reported as “with no effect”.

Variants of: B1
Conditions: with duox2_human DUOX2, Q9NRD8
With R361C the “effect of a mutation on the interaction” value was “with no effect”.

Variants of: B1
Conditions: with e2f1_human E2F1, Q01094
Sequence of e2f1_human E2F1, Q01094 (Q01094 whole entry): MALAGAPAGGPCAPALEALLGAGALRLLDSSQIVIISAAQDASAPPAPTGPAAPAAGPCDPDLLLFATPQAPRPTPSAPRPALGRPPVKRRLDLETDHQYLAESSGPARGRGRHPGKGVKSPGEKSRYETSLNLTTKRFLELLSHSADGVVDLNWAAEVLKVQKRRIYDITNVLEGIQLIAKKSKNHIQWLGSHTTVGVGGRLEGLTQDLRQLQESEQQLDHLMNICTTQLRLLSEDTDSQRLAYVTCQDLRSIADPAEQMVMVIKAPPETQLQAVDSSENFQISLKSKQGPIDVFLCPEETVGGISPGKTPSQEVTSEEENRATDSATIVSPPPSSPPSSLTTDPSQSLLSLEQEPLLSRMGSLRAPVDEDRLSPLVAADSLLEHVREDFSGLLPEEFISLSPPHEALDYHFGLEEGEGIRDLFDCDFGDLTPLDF
With R361C the “effect of a mutation on the interaction” value was “with no effect”.

Variants of: B1
Conditions: with e2f2_human E2F2, Q14209
For R361C, the “effect of a mutation on the interaction” value was “with no effect”.

Variants of: B1
Conditions: with e2f4_human E2F4, Q16254
Sequence of e2f4_human E2F4, Q16254 (Q16254 whole entry): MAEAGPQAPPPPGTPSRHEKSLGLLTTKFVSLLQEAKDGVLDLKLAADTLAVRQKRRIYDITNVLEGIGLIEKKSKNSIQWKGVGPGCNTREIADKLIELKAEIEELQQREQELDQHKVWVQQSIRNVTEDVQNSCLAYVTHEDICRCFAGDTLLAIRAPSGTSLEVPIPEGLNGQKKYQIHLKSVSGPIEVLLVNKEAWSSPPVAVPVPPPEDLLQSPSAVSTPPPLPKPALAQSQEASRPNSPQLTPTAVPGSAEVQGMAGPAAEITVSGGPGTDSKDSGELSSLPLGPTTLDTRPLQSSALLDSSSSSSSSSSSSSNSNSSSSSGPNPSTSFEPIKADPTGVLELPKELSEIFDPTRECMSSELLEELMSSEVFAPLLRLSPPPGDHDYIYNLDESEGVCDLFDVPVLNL
With R361C the “effect of a mutation on the interaction” value was “with no effect”.

Variants of: B1
Conditions: with e2f5_human E2F5, Q15329
Sequence of e2f5_human E2F5, Q15329 (Q15329 whole entry): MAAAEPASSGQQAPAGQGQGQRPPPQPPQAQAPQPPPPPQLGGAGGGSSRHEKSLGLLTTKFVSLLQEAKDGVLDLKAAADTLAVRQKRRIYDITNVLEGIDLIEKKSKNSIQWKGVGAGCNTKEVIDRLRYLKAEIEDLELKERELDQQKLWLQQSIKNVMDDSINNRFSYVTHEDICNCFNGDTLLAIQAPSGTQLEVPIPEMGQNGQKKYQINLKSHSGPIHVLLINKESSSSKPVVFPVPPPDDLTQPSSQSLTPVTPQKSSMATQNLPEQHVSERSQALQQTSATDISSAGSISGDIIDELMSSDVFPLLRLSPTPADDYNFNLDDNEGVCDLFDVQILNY
For R361C, the “effect of a mutation on the interaction” value was “with no effect”.

Variants of: B1
Conditions: with if4e_human EIF4E
For R361C, the “effect of a mutation on the interaction” value was “with no effect”.

Variants of: B1
Conditions: with epha7_human EPHA7, Q15375
Sequence of epha7_human EPHA7, Q15375 (Q15375 whole entry, looked up): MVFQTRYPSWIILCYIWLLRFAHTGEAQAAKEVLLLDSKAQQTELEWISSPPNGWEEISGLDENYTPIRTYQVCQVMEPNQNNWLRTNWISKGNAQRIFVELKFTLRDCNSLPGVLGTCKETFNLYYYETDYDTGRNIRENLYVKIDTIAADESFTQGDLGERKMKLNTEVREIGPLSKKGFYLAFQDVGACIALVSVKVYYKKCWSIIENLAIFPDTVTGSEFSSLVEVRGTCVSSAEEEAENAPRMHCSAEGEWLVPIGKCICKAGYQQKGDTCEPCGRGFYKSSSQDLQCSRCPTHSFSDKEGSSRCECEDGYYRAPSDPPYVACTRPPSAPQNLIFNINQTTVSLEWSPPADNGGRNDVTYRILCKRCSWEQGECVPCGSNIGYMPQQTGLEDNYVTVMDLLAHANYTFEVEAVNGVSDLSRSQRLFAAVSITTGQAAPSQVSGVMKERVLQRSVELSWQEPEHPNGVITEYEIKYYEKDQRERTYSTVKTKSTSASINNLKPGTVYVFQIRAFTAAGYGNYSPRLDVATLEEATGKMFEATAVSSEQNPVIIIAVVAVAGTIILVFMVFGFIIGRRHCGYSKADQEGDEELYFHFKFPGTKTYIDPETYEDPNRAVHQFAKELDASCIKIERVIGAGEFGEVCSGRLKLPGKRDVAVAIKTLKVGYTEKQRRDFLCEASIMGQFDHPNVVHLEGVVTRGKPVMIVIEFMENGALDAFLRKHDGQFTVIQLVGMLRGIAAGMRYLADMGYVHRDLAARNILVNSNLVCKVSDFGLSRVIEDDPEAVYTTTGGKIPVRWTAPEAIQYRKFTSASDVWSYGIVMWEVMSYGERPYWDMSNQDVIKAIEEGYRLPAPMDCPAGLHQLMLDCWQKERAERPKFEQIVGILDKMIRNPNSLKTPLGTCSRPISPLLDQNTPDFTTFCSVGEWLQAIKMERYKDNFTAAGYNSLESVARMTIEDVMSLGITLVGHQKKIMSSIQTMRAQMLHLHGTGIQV
R361C was tested, and the “effect of a mutation on the interaction” value was “with no effect”.

Variants of: B1
Conditions: with ephb1_human EPHB1, P54762
For R361C, the “effect of a mutation on the interaction” value was “with no effect”.

Variants of: B1
Conditions: with erbb4_human ERBB4, Q15303
In the case of R361C, the “effect of a mutation on the interaction” value is reported as “with no effect”.

Variants of: B1
Conditions: with esr1_human ESR1, P03372
R361C was tested, and the “effect of a mutation on the interaction” value was “with no effect”.

Variants of: B1
Conditions: with etv1_human ETV1, P50549
In the case of R361C, the “effect of a mutation on the interaction” value is reported as “with no effect”.

Variants of: B1
Conditions: with fadd_human FADD
R361C was tested, and the “effect of a mutation on the interaction” value was “with no effect”.

Variants of: B1
Conditions: with facd2_human FANCD2, Q9BXW9
For R361C, the “effect of a mutation on the interaction” value was “with no effect”.

Variants of: B1
Conditions: with fgf19_human FGF19, O95750
For R361C, the “effect of a mutation on the interaction” value was “with no effect”.

Variants of: B1
Conditions: with fgfr3_human FGFR3, P22607
R361C was tested, and the “effect of a mutation on the interaction” value was “with no effect”.

Variants of: B1
Conditions: with fgfr4_human FGFR4, P22455
R361C was tested, and the “effect of a mutation on the interaction” value was “with no effect”.

Variants of: B1
Conditions: with foxo1_human FOXO1, Q12778
R361C was tested, and the “effect of a mutation on the interaction” value was “with no effect”.

Variants of: B1
Conditions: with foxo3_human FOXO3, O43524
In the case of R361C, the “effect of a mutation on the interaction” value is reported as “with no effect”.

Variants of: B1
Conditions: with gbra6_human GABRA6, Q16445
Sequence of gbra6_human GABRA6, Q16445 (Q16445 whole entry): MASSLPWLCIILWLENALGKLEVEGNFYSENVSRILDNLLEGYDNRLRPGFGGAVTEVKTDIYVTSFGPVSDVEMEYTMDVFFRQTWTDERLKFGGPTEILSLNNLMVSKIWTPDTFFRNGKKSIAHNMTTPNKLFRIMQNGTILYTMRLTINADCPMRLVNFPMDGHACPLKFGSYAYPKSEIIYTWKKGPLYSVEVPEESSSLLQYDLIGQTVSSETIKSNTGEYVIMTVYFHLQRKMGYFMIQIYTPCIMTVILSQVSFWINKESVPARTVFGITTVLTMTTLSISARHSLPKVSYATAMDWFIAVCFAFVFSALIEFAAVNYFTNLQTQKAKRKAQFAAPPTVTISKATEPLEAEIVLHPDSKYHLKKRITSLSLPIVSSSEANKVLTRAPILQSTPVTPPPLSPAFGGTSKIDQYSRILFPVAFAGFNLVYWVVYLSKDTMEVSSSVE
In the case of R361C, the “effect of a mutation on the interaction” value is reported as “with no effect”.

Variants of: B1
Conditions: with gata2_human GATA2, P23769
For R361C, the “effect of a mutation on the interaction” value was “with no effect”.

Variants of: B1
Conditions: with gata3_human GATA3, P23771
Sequence of gata3_human GATA3, P23771 (P23771 whole entry): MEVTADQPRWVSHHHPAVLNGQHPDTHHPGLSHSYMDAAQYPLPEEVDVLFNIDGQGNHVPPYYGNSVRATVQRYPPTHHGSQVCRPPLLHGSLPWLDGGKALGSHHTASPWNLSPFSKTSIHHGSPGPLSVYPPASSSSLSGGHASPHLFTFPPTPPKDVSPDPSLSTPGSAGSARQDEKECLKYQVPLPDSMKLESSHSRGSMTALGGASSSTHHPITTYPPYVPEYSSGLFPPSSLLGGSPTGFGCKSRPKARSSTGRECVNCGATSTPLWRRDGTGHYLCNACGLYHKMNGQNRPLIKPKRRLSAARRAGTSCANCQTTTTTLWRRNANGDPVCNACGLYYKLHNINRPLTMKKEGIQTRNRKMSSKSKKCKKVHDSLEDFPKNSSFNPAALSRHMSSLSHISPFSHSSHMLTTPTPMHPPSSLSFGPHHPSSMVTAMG
With R361C the “effect of a mutation on the interaction” value was “with no effect”.

Variants of: B1
Conditions: with gna11_human GNA11, P29992
R361C was tested, and the “effect of a mutation on the interaction” value was “with no effect”.

Variants of: B1
Conditions: with gnaq_human GNAQ
In the case of R361C, the “effect of a mutation on the interaction” value is reported as “with no effect”.
